Laboratory results taken from patent US20230035235A1 (published 2023).

How the values were obtained:
SMARCA4 [1] = biological target: T1, SMARCA4 (human, UniProt P51532 1-1647, limits assumed); assay: inter-protein BS3 crosslinks (CX-MS), HA-BRD7-purified PBAF complexes from HEK-293T
T1 construct: Endogenous PBAF subunit; numbering on the printed UniProt entry; also called BRG1; BAF190

ARID1A = biological target: T2, ARID1A (human, UniProt O14497 2-2285); assay: HA affinity purification from HEK-293T nuclear extract, glycerol gradient fraction 15, mass spectrometry (co-purification in the complex)
T2 construct: also called BAF250A; O14497_ARI1A

SMARCE1 = biological target: T3, SMARCE1 (human, UniProt Q969G3 1-411); assay: as above
T3 construct: also called BAF57; Q969G3_SMCE1

[2] = biological target: T4, H0Y3S9 (gene symbol printed cut off as 'ARID', 29.4 kDa) (human); assay: as above
T4 construct: Which ARID gene is meant cannot be told from the print

SMARCC1 = biological target: T5, SMARCC1 (human, UniProt Q92922 2-1105); assay: as above
T5 construct: also called BAF155; Q92922_SMRC1

ARID2 = biological target: T6, ARID2 (human, UniProt Q68CP9 2-1835); assay: as above
T6 construct: also called BAF200; Q68CP9_ARID2

[3] = biological target: T7, PBRM1, entry C9J053 (13.6 kDa) (human); assay: as above
T7 construct: Separate fragment entry; gene symbol cut off in print; also called C9J053_C9J053

[4] = biological target: T8, DPF1, entry C8C3P2 (45.0 kDa) (human); assay: as above
T8 construct: Separate database entry of DPF1; also called C8C3P2_C8C3

ARID1B = biological target: T9, ARID1B (human, UniProt Q8NFD5 84-2319, limits assumed); assay: as above
T9 construct: also called BAF250B; Q8NFD5_ARI1B

[5] = biological target: T10, DPF3, entry F8W7T1 (46.4 kDa) (human); assay: as above
T10 construct: Separate database entry of DPF3; also called F8W7T1_F8W7

SMARCA2 = biological target: T11, SMARCA2 (human, UniProt P51531 1-1590, limits assumed); assay: as above
T11 construct: also called BRM; BAF190

[6] = biological target: T12, G5E975 (gene symbol printed cut off as 'SMA', 45.0 kDa) (human); assay: as above
T12 construct: Separate database entry of the search; gene symbol cut off in print

SS18 = biological target: T13, SS18 (human, UniProt Q15532 2-418, limits assumed); assay: as above
T13 construct: also called Q15532_SSXT

SMARCC2 = biological target: T14, SMARCC2 (human, UniProt Q8TAQ2 1-1214, limits assumed); assay: as above
T14 construct: also called BAF170; Q8TAQ2_SMRC2

SMARCA4 [7] = biological target: T15, SMARCA4 (human, UniProt P51532 1-1647, limits assumed); assay: as above
T15 construct: also called BRG1; BAF190

[8] = biological target: T16, A0A0A0MT49 (gene symbol printed cut off as 'SMA', about 188 kDa) (human); assay: as above
T16 construct: Separate database entry of the search; gene symbol cut off in print

[9] = biological target: T17, SMARCA4 (SWI/SNF related, matrix associated, actin dependent regulator of chromatin, subfamily a, member 4) (human, UniProt P51532 1-1647, limits assumed); assay: inter-protein BS3 crosslink, CX-MS of HA-PHF10-purified PBAF complexes from HEK-293T cells
T17 construct: Endogenous subunit co-purified in native PBAF complex; The crosslink positions count on P51532; also called BRG1; BAF190

[10] = biological target: T18, SMARCC1 (SWI/SNF related, matrix associated, actin dependent regulator of chromatin subfamily c member 1) (human, UniProt Q92922 1-1105); assay: HA-GLTSCR1L purification from HEK-293T cells, silver stain and gradient MS
T18 construct: also called BAF155; HA-SMARCC1

T10 sequence (Q92784 whole entry): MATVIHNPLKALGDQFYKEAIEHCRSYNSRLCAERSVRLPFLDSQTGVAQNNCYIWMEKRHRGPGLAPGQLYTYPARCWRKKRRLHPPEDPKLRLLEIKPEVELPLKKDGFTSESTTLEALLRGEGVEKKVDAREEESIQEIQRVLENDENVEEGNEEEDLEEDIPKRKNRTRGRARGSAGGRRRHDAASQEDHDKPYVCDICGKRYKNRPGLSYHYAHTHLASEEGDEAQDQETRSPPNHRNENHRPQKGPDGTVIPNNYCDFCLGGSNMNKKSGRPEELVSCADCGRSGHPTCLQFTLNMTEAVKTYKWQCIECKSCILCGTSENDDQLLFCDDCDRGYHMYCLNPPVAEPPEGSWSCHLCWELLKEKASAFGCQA
T2 sequence (O14497 2-2285 limits assumed): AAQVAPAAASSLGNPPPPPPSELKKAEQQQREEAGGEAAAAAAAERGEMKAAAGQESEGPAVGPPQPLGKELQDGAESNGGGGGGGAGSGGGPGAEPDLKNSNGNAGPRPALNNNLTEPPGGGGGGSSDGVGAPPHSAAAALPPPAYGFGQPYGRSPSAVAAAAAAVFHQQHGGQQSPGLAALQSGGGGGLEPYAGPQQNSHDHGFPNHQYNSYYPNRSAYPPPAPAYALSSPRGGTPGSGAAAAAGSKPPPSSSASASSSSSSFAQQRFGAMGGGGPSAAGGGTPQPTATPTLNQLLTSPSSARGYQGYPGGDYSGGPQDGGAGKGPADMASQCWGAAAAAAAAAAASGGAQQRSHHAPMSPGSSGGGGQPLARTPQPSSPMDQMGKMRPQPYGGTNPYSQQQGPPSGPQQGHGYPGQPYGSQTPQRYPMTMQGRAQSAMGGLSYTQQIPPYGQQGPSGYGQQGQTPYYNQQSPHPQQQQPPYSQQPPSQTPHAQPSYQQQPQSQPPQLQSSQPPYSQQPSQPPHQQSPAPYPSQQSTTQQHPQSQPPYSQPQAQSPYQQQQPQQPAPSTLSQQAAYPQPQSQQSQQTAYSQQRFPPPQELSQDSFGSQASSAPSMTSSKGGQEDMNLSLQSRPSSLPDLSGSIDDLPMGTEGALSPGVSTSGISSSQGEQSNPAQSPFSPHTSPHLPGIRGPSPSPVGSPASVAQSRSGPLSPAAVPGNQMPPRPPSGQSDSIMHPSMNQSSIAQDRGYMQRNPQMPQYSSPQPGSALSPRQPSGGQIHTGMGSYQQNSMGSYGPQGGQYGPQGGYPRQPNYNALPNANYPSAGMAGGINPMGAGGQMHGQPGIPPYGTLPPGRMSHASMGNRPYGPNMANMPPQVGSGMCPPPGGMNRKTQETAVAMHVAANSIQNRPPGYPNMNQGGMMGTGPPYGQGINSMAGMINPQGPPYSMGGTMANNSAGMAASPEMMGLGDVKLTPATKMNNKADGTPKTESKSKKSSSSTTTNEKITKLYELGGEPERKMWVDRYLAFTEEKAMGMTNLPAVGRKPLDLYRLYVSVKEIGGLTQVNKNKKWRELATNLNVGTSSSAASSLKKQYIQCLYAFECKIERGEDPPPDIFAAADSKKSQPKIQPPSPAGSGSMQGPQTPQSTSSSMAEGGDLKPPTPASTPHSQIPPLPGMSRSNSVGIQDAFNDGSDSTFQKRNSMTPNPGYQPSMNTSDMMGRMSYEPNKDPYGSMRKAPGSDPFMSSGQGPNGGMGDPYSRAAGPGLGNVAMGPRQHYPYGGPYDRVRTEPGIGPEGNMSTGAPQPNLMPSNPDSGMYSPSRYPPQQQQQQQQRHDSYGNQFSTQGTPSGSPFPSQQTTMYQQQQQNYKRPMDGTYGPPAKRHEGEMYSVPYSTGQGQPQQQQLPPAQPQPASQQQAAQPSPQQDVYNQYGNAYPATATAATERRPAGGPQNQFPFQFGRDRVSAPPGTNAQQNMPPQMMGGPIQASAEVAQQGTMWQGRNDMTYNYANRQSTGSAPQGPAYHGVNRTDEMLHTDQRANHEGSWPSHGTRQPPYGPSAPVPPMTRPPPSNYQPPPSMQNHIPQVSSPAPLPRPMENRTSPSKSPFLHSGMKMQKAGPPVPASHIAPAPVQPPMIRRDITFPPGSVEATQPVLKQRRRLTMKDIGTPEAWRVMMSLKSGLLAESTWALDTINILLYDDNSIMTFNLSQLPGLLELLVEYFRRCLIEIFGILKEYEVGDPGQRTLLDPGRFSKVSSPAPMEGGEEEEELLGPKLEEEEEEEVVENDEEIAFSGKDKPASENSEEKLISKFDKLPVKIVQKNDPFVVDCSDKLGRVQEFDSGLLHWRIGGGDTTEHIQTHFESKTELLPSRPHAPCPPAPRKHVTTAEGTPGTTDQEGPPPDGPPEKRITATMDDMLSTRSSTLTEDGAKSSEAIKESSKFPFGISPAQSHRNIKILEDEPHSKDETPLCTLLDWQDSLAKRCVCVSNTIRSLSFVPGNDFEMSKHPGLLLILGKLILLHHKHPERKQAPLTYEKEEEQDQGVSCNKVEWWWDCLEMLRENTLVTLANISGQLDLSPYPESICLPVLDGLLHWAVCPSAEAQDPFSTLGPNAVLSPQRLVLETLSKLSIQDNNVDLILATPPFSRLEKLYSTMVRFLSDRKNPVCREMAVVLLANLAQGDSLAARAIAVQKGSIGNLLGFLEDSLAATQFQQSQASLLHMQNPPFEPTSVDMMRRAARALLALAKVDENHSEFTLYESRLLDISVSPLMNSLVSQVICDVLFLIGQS
T11 sequence (P51531 whole entry): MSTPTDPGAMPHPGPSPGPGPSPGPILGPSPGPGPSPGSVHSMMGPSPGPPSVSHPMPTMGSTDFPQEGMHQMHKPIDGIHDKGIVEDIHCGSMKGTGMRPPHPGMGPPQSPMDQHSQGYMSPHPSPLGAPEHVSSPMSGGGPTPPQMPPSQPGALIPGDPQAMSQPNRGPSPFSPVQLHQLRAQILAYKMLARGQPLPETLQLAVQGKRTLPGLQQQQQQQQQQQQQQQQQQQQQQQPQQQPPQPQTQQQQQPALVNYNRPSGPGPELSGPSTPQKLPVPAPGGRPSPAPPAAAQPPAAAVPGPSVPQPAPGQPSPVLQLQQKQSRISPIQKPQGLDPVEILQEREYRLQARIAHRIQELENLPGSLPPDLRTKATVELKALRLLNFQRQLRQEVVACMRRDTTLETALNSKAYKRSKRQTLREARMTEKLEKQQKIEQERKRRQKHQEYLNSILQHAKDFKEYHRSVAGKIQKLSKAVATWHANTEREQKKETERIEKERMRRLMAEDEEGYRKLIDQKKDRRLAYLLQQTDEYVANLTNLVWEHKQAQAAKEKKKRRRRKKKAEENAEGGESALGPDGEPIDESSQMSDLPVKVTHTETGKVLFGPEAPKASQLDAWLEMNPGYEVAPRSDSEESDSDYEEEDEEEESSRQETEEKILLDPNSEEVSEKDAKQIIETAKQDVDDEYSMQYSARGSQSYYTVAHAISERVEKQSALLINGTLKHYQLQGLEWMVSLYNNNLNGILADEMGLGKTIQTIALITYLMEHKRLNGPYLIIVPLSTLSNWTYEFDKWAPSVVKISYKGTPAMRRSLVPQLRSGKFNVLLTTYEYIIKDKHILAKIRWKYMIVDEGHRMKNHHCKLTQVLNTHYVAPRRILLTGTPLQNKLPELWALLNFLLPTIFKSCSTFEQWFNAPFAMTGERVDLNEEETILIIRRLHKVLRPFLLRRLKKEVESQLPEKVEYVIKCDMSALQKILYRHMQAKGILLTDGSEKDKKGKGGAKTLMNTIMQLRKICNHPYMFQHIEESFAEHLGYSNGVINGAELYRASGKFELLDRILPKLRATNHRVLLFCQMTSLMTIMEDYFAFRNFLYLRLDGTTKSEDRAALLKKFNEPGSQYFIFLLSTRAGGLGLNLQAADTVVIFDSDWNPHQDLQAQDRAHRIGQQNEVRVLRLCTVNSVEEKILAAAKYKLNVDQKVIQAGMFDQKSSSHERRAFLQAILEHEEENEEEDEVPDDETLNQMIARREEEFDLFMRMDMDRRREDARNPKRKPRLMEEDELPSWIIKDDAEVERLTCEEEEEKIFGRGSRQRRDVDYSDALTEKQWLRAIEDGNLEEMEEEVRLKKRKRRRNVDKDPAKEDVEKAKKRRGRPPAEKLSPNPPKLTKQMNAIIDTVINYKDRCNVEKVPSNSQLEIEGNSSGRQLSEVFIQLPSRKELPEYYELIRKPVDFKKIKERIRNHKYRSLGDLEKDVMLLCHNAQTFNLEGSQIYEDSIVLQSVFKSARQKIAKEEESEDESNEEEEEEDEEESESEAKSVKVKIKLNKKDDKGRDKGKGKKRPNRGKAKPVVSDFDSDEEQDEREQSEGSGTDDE
T13 sequence (Q15532 2-418 limits assumed): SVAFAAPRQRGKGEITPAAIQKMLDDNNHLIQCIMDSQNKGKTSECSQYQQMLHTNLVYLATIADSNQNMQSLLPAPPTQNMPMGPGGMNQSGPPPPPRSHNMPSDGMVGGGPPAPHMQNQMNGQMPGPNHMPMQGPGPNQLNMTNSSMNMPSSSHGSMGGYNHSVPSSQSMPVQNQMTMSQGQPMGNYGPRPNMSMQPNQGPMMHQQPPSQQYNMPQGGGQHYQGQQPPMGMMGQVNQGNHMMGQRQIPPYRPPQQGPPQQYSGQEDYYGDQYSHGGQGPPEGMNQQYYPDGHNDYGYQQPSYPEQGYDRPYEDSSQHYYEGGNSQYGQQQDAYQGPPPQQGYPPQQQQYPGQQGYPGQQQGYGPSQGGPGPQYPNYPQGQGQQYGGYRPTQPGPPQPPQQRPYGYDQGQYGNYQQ
T3 sequence (Q969G3 whole entry): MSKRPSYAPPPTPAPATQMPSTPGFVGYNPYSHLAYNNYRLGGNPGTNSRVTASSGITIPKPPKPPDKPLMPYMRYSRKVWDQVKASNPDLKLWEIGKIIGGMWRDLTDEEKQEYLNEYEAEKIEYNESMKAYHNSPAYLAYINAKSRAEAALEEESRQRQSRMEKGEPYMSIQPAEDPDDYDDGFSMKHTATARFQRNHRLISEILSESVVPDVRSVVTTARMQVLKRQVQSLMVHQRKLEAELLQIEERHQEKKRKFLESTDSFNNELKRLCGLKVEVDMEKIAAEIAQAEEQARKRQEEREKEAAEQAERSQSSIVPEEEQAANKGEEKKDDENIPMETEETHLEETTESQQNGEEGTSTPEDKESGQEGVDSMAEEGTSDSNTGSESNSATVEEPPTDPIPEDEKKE

B1: PHF10 (other, human, UniProt Q8WUB8 2-498, looked up)
chain: AAAAGPGAALSPRPCDSDPATPGAQSPKDDNEDNSNDGTQPSKRRRMGSGDSSRSCETSSQDLGFSYYPAENLIEYKWPPDETGEYYMLQEQVSEYLGVTSFKRKYPDLERRDLSHKEKLYLRELNVITETQCTLGLTALRSDEVIDLMIKEYPAKHAEYSVILQEKERQRITDHYKEYSQMQQQNTQKVEASKVPEYIKKAAKKAAEFNSNLNRERMEERRAYFDLQTHVIQVPQGKYKVLPTERTKVSSYPVALIPGQFQEYYKRYSPDELRYLPLNTALYEPPLDPELPALDSDGDSDDGEDGRGDEKRKNKGTSDSSSGNVSEGESPPDSQEDSFQGRQKSKDKAATPRKDGPKRSVLSKSVPGYKPKVIPNAICGICLKGKESNKKGKAESLIHCSQCENSGHPSCLDMTMELVSMIKTYPWQCMECKTCIICGQPHHEEEMMFCDMCDRGYHTFCVGLGAIPSGRWICDCCQRAPPTPRKVGRRGKNSKEG
notes: Endogenous PBAF subunit; numbering on the printed UniProt entry; also called BAF45A
binding result (SMARCA4 [1]): binds

B2: HA-SMARCD1 (other, human, UniProt Q96GM5 1-515, looked up)
chain: MAARAGFQSVAPSGGAGASGGAGAAAALGPGGTPGPPVRMGPAPGQGLYRSPMPGAAYPRPGMLPGSRMTPQGPSMGPPGYGGNPSVRPGLAQSGMDQSRKRPAPQQIQQVQQQAVQNRNHNAKKKKMADKILPQRIRELVPESQAYMDLLAFERKLDQTIMRKRLDIQEALKRPIKQKRKLRIFISNTFNPAKSDAEDGEGTVASWELRVEGRLLEDSALSKYDATKQKRKFSSFFKSLVIELDKDLYGPDNHLVEWHRTATTQETDGFQVKRPGDVNVRCTVLLMLDYQPPQFKLDPRLARLLGIHTQTRPVIIQALWQYIKTHKLQDPHEREFVICDKYLQQIFESQRMKFSEIPQRLHALLMPPEPIIINHVISVDPNDQKKTACYDIDVEVDDTLKTQMNSFLLSTASQQEIATLDNKIHETIETINQLKTQREFMLSFARDPQGFINDWLQSQCRDLKTMTDVVGNPEEERRAEFYFQPWAQEAVCRYFYSKVQQRRQELEQALGIRNT
notes: also called BAF60A; Q96GM5_SMRD1; not shown: HA tag
total peptides (ARID1A): 321 peptides | unique peptides (ARID1A): 100 peptides | total peptides (SMARCE1): 114 peptides | unique peptides (SMARCE1): 33 peptides | total peptides [2]: 1 peptides | unique peptides [2]: 1 peptides | total peptides (SMARCC1): 403 peptides | unique peptides (SMARCC1): 88 peptides | total peptides (ARID2): 55 peptides | unique peptides (ARID2): 41 peptides | total peptides [3]: 1 peptides | unique peptides [3]: 1 peptides | total peptides [4]: 1 peptides | unique peptides [4]: 1 peptides | total peptides (ARID1B): 189 peptides | unique peptides (ARID1B): 75 peptides | total peptides [5]: 2 peptides | unique peptides [5]: 1 peptides | total peptides (SMARCA2): 206 peptides | unique peptides (SMARCA2): 74 peptides | total peptides [6]: 3 peptides | unique peptides [6]: 2 peptides | total peptides (SS18): 3 peptides | unique peptides (SS18): 2 peptides | total peptides (SMARCC2): 172 peptides | unique peptides (SMARCC2): 55 peptides | total peptides (SMARCA4 [7]): 153 peptides | unique peptides (SMARCA4 [7]): 53 peptides | total peptides [8]: 8 peptides | unique peptides [8]: 2 peptides

B3: BRD7 (Bromodomain-containing protein 7) (other, human, UniProt Q9NPI1 1-651, looked up)
chain: MGKKHKKHKSDKHLYEEYVEKPLKLVLKVGGNEVTELSTGSSGHDSSLFEDKNDHDKHKDRKRKKRKKGEKQIPGEEKGRKRRRVKEDKKKRDRDRVENEAEKDLQCHAPVRLDLPPEKPLTSSLAKQEEVEQTPLQEALNQLMRQLQRKDPSAFFSFPVTDFIAPGYSMIIKHPMDFSTMKEKIKNNDYQSIEELKDNFKLMCTNAMIYNKPETIYYKAAKKLLHSGMKILSQERIQSLKQSIDFMADLQKTRKQKDGTDTSQSGEDGGCWQREREDSGDAEAHAFKSPSKENKKKDKDMLEDKFKSNNLEREQEQLDRIVKESGGKLTRRLVNSQCEFERRKPDGTTTLGLLHPVDPIVGEPGYCPVRLGMTTGRLQSGVNTLQGFKEDKRNKVTPVLYLNYGPYSSYAPHYDSTFANISKDDSDLIYSTYGEDSDLPSDFSIHEFLATCQDYPYVMADSLLDVLTKGGHSRTLQEMEMSLPEDEGHTRTLDTAKEMEITEVEPPGRLDSSTQDRLIALKAVTNFGVPVEVFDSEEAEIFQKKLDETTRLLRELQEAQNERLSTRPPPNMICLLGPSYREMHLAEQVTNNLKELAQQVTPGDIVSTYGVRKAMGISIPSPVMENNFVDLTEDTEEPKKTDVAECGPGGS
notes: Endogenous subunit co-purified in native PBAF complex; The crosslink positions count on Q9NPI1; also called Q9NPI1
binding result [9]: binds

B4: GLTSCR1L (BRD4 Interacting Chromatin Remodeling Complex Associated Protein Like) (other, human, UniProt Q6AI39 1-1079, looked up)
chain: MDDDDDSCLLDLIGDPQALNYFLHGPSNKSSNDDLTNAGYSAANSNSIFANSSNADPKSSLKGVSNQLGEGPSDGLPLSSSLQFLEDELESSPLPDLTEDQPFDILQKSLQEANITEQTLAEEAYLDASIGSSQQFAQAQLHPSSSASFTQASNVSNYSGQTLQPIGVTHVPVGASFASNTVGVQHGFMQHVGISVPSQHLSNSSQISGSGQIQLIGSFGNHPSMMTINNLDGSQIILKGSGQQAPSNVSGGLLVHRQTPNGNSLFGNSSSSPVAQPVTVPFNSTNFQTSLPVHNIIIQRGLAPNSNKVPINIQPKPIQMGQQNTYNVNNLGIQQHHVQQGISFASASSPQGSVVGPHMSVNIVNQQNTRKPVTSQAVSSTGGSIVIHSPMGQPHAPQSQFLIPTSLSVSSNSVHHVQTINGQLLQTQPSQLISGQVASEHVMLNRNSSNMLRTNQPYTGPMLNNQNTAVHLVSGQTFAASGSPVIANHASPQLVGGQMPLQQASPTVLHLSPGQSSVSQGRPGFATMPSVTSMSGPSRFPAVSSASTAHPSLGSAVQSGSSGSNFTGDQLTQPNRTPVPVSVSHRLPVSSSKSTSTFSNTPGTGTQQQFFCQAQKKCLNQTSPISAPKTTDGLRQAQIPGLLSTTLPGQDSGSKVISASLGTAQPQQEKVVGSSPGHPAVQVESHSGGQKRPAAKQLTKGAFILQQLQRDQAHTVTPDKSHFRSLSDAVQRLLSYHVCQGSMPTEEDLRKVDNEFETVATQLLKRTQAMLNKYRCLLLEDAMRINPSAEMVMIDRMFNQEERASLSRDKRLALVDPEGFQADFCCSFKLDKAAHETQFGRSDQHGSKASSSLQPPAKAQGRDRAKTGVTEPMNHDQFHLVPNHIVVSAEGNISKKTECLGRALKFDKVGLVQYQSTSEEKASRREPLKASQCSPGPEGHRKTSSRSDHGTESKLSSILADSHLEMTCNNSFQDKSLRNSPKNEVLHTDIMKGSGEPQPDLQLTKSLETTFKNILELKKAGRQPQSDPTVSGSVELDFPNFSPMASQENCLEKFIPDHSEGVVETDSILEAAVNSILEC
notes: also called BICRAL; HA-GLTSCR1L
binding result [10]: binds
